Measurements as given in the supplement of paper PMC9112550, “Optimization of the antimicrobial peptide Bac7 by deep mutational scanning” (BMC Biology, 2022).

test system: Escherichia coli TOP10; assay: shrunken log2 fold change of peptide-encoding DNA abundance (4.5 h post-induction vs induction); higher = less antimicrobial activity (less host growth inhibition); conditions: time post-induction: 4.5 h; library: site-saturation at positions 5, 18, 19, 20
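Also: peptides expressed intracellularly from a pBAD plasmid library in pooled LB shake-flask culture, induced with 0.3% L-arabinose, DNA abundance read by NGS, three biological replicates, DESeq2 with apeglm shrinkage.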

Point of comparison: RRIRTRPPRLPRPRPRPRHKPRP, “shrunken log2 fold change” value 0.123. Against it:
- RRIRKRPPRLPRPRPRPMYKPRP — within 0.2 log units, -0.0655
- RRIRQRPPRLPRPRPRPNQDPRP — within 0.2 log units, -0.0715
- RRIRKRPPRLPRPRPRPLIMPRP — lower, -0.376
- RRIRQRPPRLPRPRPRPPELPRP — within 0.2 log units, 0.109
- RRIRRRPPRLPRPRPRPNSYPRP — lower, -0.116
- RRIRQRPPRLPRPRPRPDQQPRP — within 0.2 log units, 0.0334
- RRIRMRPPRLPRPRPRPNELPRP — within 0.2 log units, 0.0804
- RRIRARPPRLPRPRPRPKGHPRP — higher, 0.359
- RRIRNRPPRLPRPRPRPNHTPRP — lower, -0.773
- RRIRIRPPRLPRPRPRPQFEPRP — within 0.2 log units, -0.0601
- RRIRKRPPRLPRPRPRPNGEPRP — within 0.2 log units, 0.189
- RRIRYRPPRLPRPRPRPNLFPRP — lower, -0.676
- RRIRSRPPRLPRPRPRPWCPPRP — lower, -0.549
- RRIRVRPPRLPRPRPRPAKQPRP — lower, -0.0993
- RRIRARPPRLPRPRPRPQYVPRP — lower, -0.116
- RRIRCRPPRLPRPRPRPTSMPRP — lower, -0.308
- RRIRERPPRLPRPRPRPMDKPRP — lower, -0.219
- RRIRARPPRLPRPRPRPIGDPRP — within 0.2 log units, 0.24
- RRIRQRPPRLPRPRPRPGFLPRP — within 0.2 log units, 0.107
- RRIRYRPPRLPRPRPRPQMCPRP — within 0.2 log units, -0.0257
- RRIRERPPRLPRPRPRPRVPPRP — higher, 0.425
- RRIRCRPPRLPRPRPRPKMQPRP — within 0.2 log units, 0.103
- RRIRERPPRLPRPRPRPCLEPRP — lower, -0.116
- RRIRFRPPRLPRPRPRPEPAPRP — higher, 0.669
- RRIRGRPPRLPRPRPRPDQRPRP — higher, 0.55
- RRIRIRPPRLPRPRPRPCQCPRP — lower, -1.17
- RRIRQRPPRLPRPRPRPCFKPRP — lower, -0.407
- RRIRNRPPRLPRPRPRPFCCPRP — lower, -0.257
- RRIRTRPPRLPRPRPRPPDTPRP — within 0.2 log units, 0.0652
- RRIRMRPPRLPRPRPRPIMFPRP — lower, -0.103
- RRIRERPPRLPRPRPRPMPDPRP — within 0.2 log units, 0.17
- RRIRKRPPRLPRPRPRPINNPRP — lower, -0.298
- RRIRCRPPRLPRPRPRPYFDPRP — lower, -0.446
- RRIRSRPPRLPRPRPRPSAPPRP — within 0.2 log units, 0.287
- RRIRNRPPRLPRPRPRPLHLPRP — lower, -0.59
- RRIRCRPPRLPRPRPRPALVPRP — within 0.2 log units, 0.281
- RRIRARPPRLPRPRPRPGARPRP — higher, 0.59
- RRIRHRPPRLPRPRPRPAIQPRP — within 0.2 log units, 0.0477
- RRIRPRPPRLPRPRPRPFYNPRP — lower, -0.7
- RRIRNRPPRLPRPRPRPQAIPRP — within 0.2 log units, 0.00297
- RRIRPRPPRLPRPRPRPGWGPRP — higher, 0.458
- RRIRGRPPRLPRPRPRPPLWPRP — higher, 1.09
- RRIRSRPPRLPRPRPRPCWNPRP — lower, -0.296
- RRIRHRPPRLPRPRPRPMFCPRP — within 0.2 log units, 0.0621
- RRIRMRPPRLPRPRPRPEIWPRP — higher, 1.2
- RRIRDRPPRLPRPRPRPWISPRP — within 0.2 log units, -0.00776
- RRIRPRPPRLPRPRPRPGQKPRP — within 0.2 log units, -0.00227
- RRIRMRPPRLPRPRPRPDARPRP — within 0.2 log units, -0.0547
- RRIRWRPPRLPRPRPRPSWHPRP — within 0.2 log units, 0.0186
- RRIRYRPPRLPRPRPRPTCFPRP — lower, -0.222
- RRIRWRPPRLPRPRPRPSGRPRP — within 0.2 log units, 0.201
- RRIRGRPPRLPRPRPRPMKFPRP — within 0.2 log units, 0.0112
- RRIRNRPPRLPRPRPRPHKTPRP — lower, -0.22
- RRIRARPPRLPRPRPRPCRCPRP — within 0.2 log units, 0.0187
- RRIRCRPPRLPRPRPRPKPSPRP — within 0.2 log units, 0.136
- RRIRTRPPRLPRPRPRPYHKPRP — lower, -0.426
- RRIRTRPPRLPRPRPRPRRSPRP — within 0.2 log units, 0.318
- RRIRGRPPRLPRPRPRPSQTPRP — higher, 1.08
- RRIRHRPPRLPRPRPRPLGRPRP — within 0.2 log units, 0.218
- RRIRERPPRLPRPRPRPRVNPRP — lower, -0.157
- RRIRHRPPRLPRPRPRPWAGPRP — lower, -0.15
- RRIRLRPPRLPRPRPRPIFTPRP — lower, -0.206
- RRIRSRPPRLPRPRPRPLYMPRP — lower, -1
- RRIRHRPPRLPRPRPRPHQTPRP — within 0.2 log units, -0.0667
- RRIRMRPPRLPRPRPRPSSIPRP — within 0.2 log units, -0.0701
- RRIRNRPPRLPRPRPRPARLPRP — within 0.2 log units, 0.184
- RRIRDRPPRLPRPRPRPAHWPRP — higher, 0.404
- RRIRVRPPRLPRPRPRPILAPRP — lower, -0.224
- RRIRIRPPRLPRPRPRPTVHPRP — within 0.2 log units, 0.0548
- RRIRKRPPRLPRPRPRPVTPPRP — within 0.2 log units, 0.307
- RRIRDRPPRLPRPRPRPVKWPRP — within 0.2 log units, 0.00911
- RRIRIRPPRLPRPRPRPSDLPRP — within 0.2 log units, -0.0735
- RRIRWRPPRLPRPRPRPFTTPRP — lower, -0.0833
- RRIRCRPPRLPRPRPRPGWGPRP — higher, 0.42
- RRIRVRPPRLPRPRPRPFNGPRP — lower, -0.15
- RRIRARPPRLPRPRPRPTGLPRP — within 0.2 log units, 0.298
- RRIRRRPPRLPRPRPRPSNAPRP — within 0.2 log units, 0.204
- RRIRRRPPRLPRPRPRPWRVPRP — within 0.2 log units, 0.277
- RRIRFRPPRLPRPRPRPPTIPRP — lower, -0.105
- RRIRLRPPRLPRPRPRPEREPRP — within 0.2 log units, 0.0872
- RRIRGRPPRLPRPRPRPLIGPRP — higher, 0.561
- RRIRPRPPRLPRPRPRPAYIPRP — lower, -0.518
- RRIRYRPPRLPRPRPRPRLTPRP — lower, -0.0803
- RRIRCRPPRLPRPRPRPILTPRP — lower, -0.302
- RRIRCRPPRLPRPRPRPSNRPRP — lower, -0.253
- RRIRCRPPRLPRPRPRPITHPRP — lower, -0.158
- RRIRYRPPRLPRPRPRPYKQPRP — within 0.2 log units, -0.025
- RRIRARPPRLPRPRPRPKNWPRP — higher, 0.465
- RRIRSRPPRLPRPRPRPWSYPRP — within 0.2 log units, 0.0308
- RRIRRRPPRLPRPRPRPVNMPRP — lower, -0.156
- RRIRSRPPRLPRPRPRPLFGPRP — within 0.2 log units, 0.157
- RRIRFRPPRLPRPRPRPHWMPRP — lower, -0.457
- RRIRKRPPRLPRPRPRPFAGPRP — within 0.2 log units, 0.191
- RRIRTRPPRLPRPRPRPQAIPRP — within 0.2 log units, 0.209
- RRIRTRPPRLPRPRPRPYAHPRP — lower, -0.239
- RRIRHRPPRLPRPRPRPSFFPRP — lower, -0.41
- RRIRFRPPRLPRPRPRPFNYPRP — lower, -0.183
- RRIRRRPPRLPRPRPRPMGSPRP — within 0.2 log units, -0.0322
- RRIRQRPPRLPRPRPRPWNFPRP — lower, -0.15
- RRIRNRPPRLPRPRPRPWFTPRP — lower, -0.786
- RRIRFRPPRLPRPRPRPKCAPRP — within 0.2 log units, -0.0345
- RRIRNRPPRLPRPRPRPYPAPRP — within 0.2 log units, 0.0741
- RRIRARPPRLPRPRPRPQVSPRP — lower, -0.156
- RRIRQRPPRLPRPRPRPYDNPRP — within 0.2 log units, -0.0495
- RRIRIRPPRLPRPRPRPNGSPRP — within 0.2 log units, 0.0061
- RRIRCRPPRLPRPRPRPNNNPRP — lower, -0.797
- RRIRNRPPRLPRPRPRPWMCPRP — lower, -1.23
- RRIRRRPPRLPRPRPRPATNPRP — within 0.2 log units, 0.189
